Data published in PMC6100724, “Proteome‐wide analysis of phospho‐regulated PDZ domain interactions” (Molecular Systems Biology, 2018).
Square brackets hold non-standard residues; d marks the D form. Ends that are not written are not given here. * marks the point of attachment. FITC = O=C1OC2(c3ccc(O)cc3Oc3cc(O)ccc32)c2ccc(NC(=S)*)cc21; pS = N[C@@H](COP(=O)(O)O)C(=O)O

T1: FITC-RLTpSTRL (RPS6KA2 peptide, phosphorylated at p-3) (human)
T1 construct: C-terminal peptide of human RPS6KA2; source: synthetic peptide, bought: GeneCust
T1 peptide: {FITC}-RLT[pS]TRL

T2: FITC-RLTETRL (RPS6KA2 peptide, phosphomimetic at p-3) (human, S730E (stands in the printed letters))
T2 construct: also called phosphomimetic RPS6KA2; source: synthetic peptide, bought: GeneCust
T2 peptide: {FITC}-RLTETRL

T3: FITC-KRpSFIESNV (TANC1 peptide, phosphorylated at p-6) (human)
T3 construct: C-terminal peptide of human TANC1; also called TANC1 phosphopeptide; source: synthetic peptide, bought: GeneCust
T3 peptide: {FITC}-KR[pS]FIESNV

T4: FITC-KREFIESNV (TANC1 peptide, phosphomimetic at p-6) (human, Ser to Glu at p-6 (stands in the printed letters))
T4 construct: also called phosphomimetic TANC1; source: synthetic peptide, bought: GeneCust
T4 peptide: {FITC}-KREFIESNV

T5: FITC-HTNETpSL (MCC peptide, phosphorylated at p-1) (human)
T5 construct: C-terminal peptide of human MCC; also called pMCC; source: synthetic peptide, bought: GeneCust
T5 peptide: {FITC}-HTNET[pS]L

B1: SHANK1 PDZ (aa 652-761, His-GST tag removed) (domain or fragment, human, UniProt Q9Y566 652-761, looked up)
chain: GPGSDYIIKEKTVLLQKKDSEGFGFVLRGAKAQTPIEEFTPTPAFPALQYLESVDEGGVAWRAGLRMGDFLIEVNGQNVVKVGHRQVVNMIRQGGNTLMVKVVMVTRHPD
notes: human Shank1, PDZ, aa 652-761, in pETM-33; also called untagged SHANK1 PDZ; source: E. coli BL21 Gold (DE3), purified (Ni2+ Sepharose), tag removed with HRV3C protease
B2: MKRLTpSTRL (RPS6KA2 peptide, phosphorylated at p-3, unlabelled) (peptide)
peptide: MKRLT[pS]TRL
notes: C-terminal peptide of human RPS6KA2; also called phospho-RPS6KA2; pRPS6KA2; source: synthetic peptide, bought: GeneCust
B3: DLG1 PDZ2 (His-tagged, aa 311-407) (domain or fragment, human, UniProt Q12959 311-407, looked up)
chain: KPVSEKIMEIKLIKGPKGLGFSIAGGVGNQHIPGDNSIYVTKIIEGGAAHKDGKLQIGDKLLAVNNVCLEEVTHEEAVTALKNTSDFVYLKVAKPTS
notes: human DLG1, PDZ2, aa 311-407, in a modified pRSET vector; also called DLG PDZ2; source: E. coli BL21 Gold (DE3), purified (Ni2+ Sepharose), dialysed
B4: Scribble PDZ1 (His-tagged, aa 719-829) (domain or fragment)
chain: not shown
notes: human Scribble, PDZ1, aa 719-829, in pETM-11; Used for MST and ITC; removal of the His tag is told only for the NMR samples; also called Scribble PDZ1 wild type; source: E. coli BL21 Gold (DE3), purified (Ni2+ Sepharose), dialysed

Experiments:
Conditions in all cases: both partners purified
[1] = molecular target: T1, FITC-RLTpSTRL (RPS6KA2 peptide, …); test: MST; FITC-labeled peptide fixed at 25-50 nM, untagged SHANK1 PDZ in a dilution series; PBS, 10 mM MgCl2, 0.05% Tween-20; n = 3
Scribble PDZ1 R762A = molecular target: T6, Scribble PDZ1 R762A (human, UniProt Q14160 719-829, R762A); test: ITC; iTC200, 25°C, 20 mM HEPES pH 7.4; protein 50-100 μM in the cell, peptide 0.64-3 mM in the syringe; single-site fit, stoichiometry fixed to 0.8-1.1; n = 3
T6 construct: human Scribble, PDZ1, aa 719-829, in pETM-11, point mutant; Used for ITC; also called mutational background; source: E. coli BL21 Gold (DE3), purified (Ni2+ Sepharose), dialysed
T6 sequence (Q14160 719-829 R762A): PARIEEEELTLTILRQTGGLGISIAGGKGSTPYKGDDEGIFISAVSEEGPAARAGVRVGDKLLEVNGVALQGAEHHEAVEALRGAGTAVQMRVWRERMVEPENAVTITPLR

[2] = molecular target: T7, Scribble PDZ1 R762A/A743R (human, UniProt Q14160 719-829, R762A | A743R); test: as above
T7 construct: human Scribble, PDZ1, aa 719-829, A743R introduced in the background of R762A; also called R762A/A743R mutant; source: E. coli BL21 Gold (DE3), purified (Ni2+ Sepharose), dialysed
T7 sequence (Q14160 719-829 A743R/R762A): as the sequence (Q14160 719-829 R762A) above, with A25R counted along it

[3] = molecular target: B4; test: as above
[4] = molecular target: T2, FITC-RLTETRL (RPS6KA2 peptide, …); test: MST; FITC-labeled peptide fixed at 25-50 nM, protein (Scribble PDZ1 or DLG1 PDZ2) in a 1:1 dilution series; 50 mM Tris-HCl pH 7.4, 0.1% Tween-20; thermophoresis and T-Jump signal; n = 3
[5] = molecular target: T3, FITC-KRpSFIESNV (TANC1 peptide, …); test: as above
[6] = molecular target: T4, FITC-KREFIESNV (TANC1 peptide, …); test: as above
[7] = molecular target: T5, FITC-HTNETpSL (MCC peptide, …); test: as above
[8] = molecular target: T1, FITC-RLTpSTRL (RPS6KA2 peptide, …); test: as above

Binder: B1
fold lower affinity than for the unphosphorylated peptide [1]: 3.6 fold

Binder: B2
fold weaker affinity than the wild type (Scribble PDZ1 R762A): 6 fold
binding result [2]: binds
fold higher affinity than for the unphosphorylated peptide [3]: 5 fold

Binder: B3
fold higher affinity than for the unphosphorylated peptide [4]: 1.3 fold
fold lower affinity than for the unphosphorylated peptide [5]: 2.9 fold
fold lower affinity than for the unphosphorylated peptide [6]: 2.4 fold

Binder: B4
fold higher affinity than for the unphosphorylated peptide [7]: 3 fold
fold higher affinity than for the unphosphorylated peptide [8]: 5 fold
fold lower affinity than for the unphosphorylated peptide [5]: 2 fold
